Data on 1 molecule can be found in patent US7981863B2, “Treatment of Parkinson's disease with PDGF” (Neuronova AB, priority 2001, dated 2011).

The subject of assay [1] is cultured, non-adherent mouse neurospheres. The assay is described as follows: Intracellular ATP assay, proliferation of cultured mouse neurospheres. The format is cell-based. Particulars: growth media supplemented with B27; 1 nM-0.0005 nM; 3 days of treatment; FIG. 1. On the procedure:
The anterior lateral wall of the lateral ventricle of 5-6 week old mice was enzymatically dissociated in 0.8 mg/ml hyaluronidase and 0.5 mg/ml trypsin in DMEM containing 4.5 mg/ml glucose and 80 units/ml DNase at 37° C. for 20 min. The cells were gently triturated and mixed with three volumes of Neurosphere medium (DMEM/F12, B27 supplement, 125 mM HEPES pH 7.4) containing 20 ng/ml EGF (unless otherwise stated), 100 units/ml penicillin and 100 μg/ml streptomycin. After passing through a 70 μm strainer, the cells were pelleted at 160×g for 5 min. The supernatant was subsequently removed and the cells resuspended in Neurosphere medium supplemented as above, plated out in culture dishes and incubated at 37° C. Neurospheres were ready to be split approximately 7 days after plating.
To split the neurospheres, cells were collected by centrifugation at 160×g for 5 min. The conditioned supernatant (conditioned medium) was removed and saved. The neurospheres were resuspended in 0.5 ml Trypsin/EDTA in HBSS (1×), incubated at 37° C. for 2 min and triturated gently to aid dissociation. Following a further 3 min incubation at 37° C. and trituration, 3 volumes of ice cold Neurosphere medium medium w/o EGF were added to stop further trypsin activity. […]
After 3 days of treatment, intracelluar ATP was measured using the ATP SL kit (Biothema) according to the manufacturer's instructions.

Another assay concerns 6-OHDA Lesioned Rats. The assay is described as follows: i.c.v. infusion in 6-OHDA lesioned rats, BrdU / NeuN labelling. The format is in vivo, rat. As to the method: Animal handling and surgical procedures were carried out according to the ethical and regulatory permits set forth by Jordbruksverket and Lund University. Adult female Sprague-Dawley rats (B&K Universal AB) rats weighing 220-250 g, were housed in pairs with a 12 h light-dark cycle with free access to food and water. To lesion the substantia nigra, rats were fixed into a stereotaxic frame and 6-OHDA ([…] in 0.02% ascorbate saline, Sigma) was injected at a rate of 1 μl/min in 2 deposits of 2 and 2.5 μl into the right ascending mesostriatal forebrain bundle at the following coordinates: 4.4 mm caudal to bregma, 1.2 mm lateral to midline, 7.8 mm below dura; 4.0 mm caudal, 0.8 mm lateral, 8.0 mm below dura, respectively (Paxinos and Watson, 1998). Three weeks after 6-OHDA injections, the completeness of the lesion was assessed with the amphetamine-induced rotation test. D-methylamphetamine (2.5 mg, i.p.) was injected 5 min prior to placing the rat in an automated rotormeter bowl that measured the number of rotations over 90 min.
Before implantation, an Alzet Model 2002 osmotic minipump (200 μl; flow rate: 0.5 μl/h, 12 μl/day) was prefilled with 200 μl of compound solution (see below) and placed in a NaCl (0.9%) solution warmed in water bath (37° C.) 36 hrs before implantation. Rats were anesthetized with halothane in a mixture of nitrous oxide/oxygen (70:30) and maintained with 2-3% halothane. For implantation, rats were placed in a stereotaxic frame and the cannula of the Alzet Brain Infusion kit II was placed into the right lateral ventricle (coordinates: AP=−0.3 mm posterior bregma, L=1.5 mm lateral to satura sagittalis, 4.5 mm the dura; Paxinos and Watson, 1998), and secured to the skull with screws and dental cement. The minipump was then placed subcutaneously in the mid-scapular region. The scalp was treated with lidocaine gel before suturing. Twelve days after insertion, the rats were briefly anaesthetized with halothane in order to remove the pump. Removed pumps had the remaining solution volume and weight recorded.
The effects of infused PDGF-BB and BDNF following 6-OHDA lesions were investigated at 2 different time points: at 12 days or 5 weeks after minipump insertion. Rats receiving human PDGF-BB (order # 220-BB-050; 50 μg, R&D Systems) each had 36 ng/d of PDGF dissolved in 0.1 M PBS (3 μg/ml). Rats receiving human recombinant BDNF (order # 248-BD-025; 25 μg, R&D Systems) each had 12 ng/d of BDNF dissolved in 0.1 M PBS (1 μg/ml). BrdU was co-administered with the compound solution in the minipumps by dissolving it into the 0.1 M PBS medium. Control rats received only BrdU/PBS infusions.
Brain tissue was obtained by anesthetizing the rat and transcardially perfusing with 0.9% saline followed by 4% paraformaldehyde (PFA). Brains were stored PFA for 2 hours, then transferred to 20% sucrose PBS and sectioned coronally on a sledge microtome at 30 μm thickness. Free-floating sections were stored in Walter's antifreeze solution at 4° C. until staining.
Following blocking, incubation of monoclonal rat anti-BrdU antibody (Harlan Sera Lab, UK) in 2% blocking solution occurred at a dilution of 1:100 at 4° C. for 36 hrs. The sections were then incubated with biotin-horse-[…] antibody (1:200) (Vector, CA) in 2% blocking solution for 2 hr and visualized with DAB-NiCl Vectastain Elite kit. The procedure for doubling labeling of BrdU with NeuN or TH was similar, except that a monoclonal rat anti-BrdU antibody (1:100; Sigma, Sweden) was incubated either with a monoclonal mouse anti-NeuN antibody (1:100; Chemicon, USA) or with a monoclonal anti-TH antibody (1:1000; Pelfreeze) in the appropriate 2% blocking solution in the dark for 36 to 48 hrs. For immunofluorescent visualization, sections were incubation in secondary antibodies: Cy3-conjugated donkey anti-rat (1:200; Jackson ImmunoResearch, PA) for BrdU; a biotinylated horse anti-mouse antibody (1:200; BA2001, Vector, CA) for NeuN; and a FITC-conjugated goat anti-rat (1:200;) for TH. […]

B1: PDGF-BB: human recombinant PDGF-BB, platelet derived growth factor B-chain homodimer (protein)
chain: SLGSLTIAEPAMIAECKTRTEVFEISRRLIDRTNANFLVWPPCVEVQRCSGCCNNRNVQCRPTQVQLRPVQVRKIEIVRKKPIFKKATVTLEDHLACKCETVAAARPVT
Take B1: in assay [1], the “proliferative effect (intracellular ATP)” value is “concentration dependent proliferative effect”. In the assay with 6-OHDA Lesioned Rats (5 weeks, FIG. 15), the “absolute number of BrdU/NeuN double labelled cells in the striatum” value is recorded as “significantly more neurons”. Moreover, the “numbers of BrdU labelled cells in the denervated striatum” value in the assay on 6-OHDA Lesioned Rats (12 days after infusion, compared to PBS infusion, PDGF 36 ng/d, BDNF 12 ng/d) was “significantly elevated”. For the same molecule, the “numbers of BrdU labelled cells in the lesioned substantia nigra” value in the assay on 6-OHDA Lesioned Rats (12 days after infusion, compared to PBS treatment) is on record as “significantly elevated”. For the same molecule, the “BrdU cells in the striatum co-labelled with NeuN (proportion of newly generated neurons)” value in the assay with 6-OHDA Lesioned Rats (Week 5, no statistically significant differences) is listed as 20.9%.
